Reference: paper doi:10.1101/2025.02.26.640323, “Aggregation-Dependent Epitope Sequence and Modification Fingerprints of Anti-Aβ Antibodies” (bioRxiv, 2025)
Entries after “also recorded” stand apart in the source; their conditions may differ.

Assays:
[1] = Isoelectric point on CIEF immunoassay; assay type: physicochemical; details: Peggy Sue
Method: (§1) Automated capillary isoelectric focusing immunoassays were performed with a Peggy-Sue system (ProteinSimple,San Jose, California, USA), essentially as previously described and [53].
(§2) In brief, synthetic Aβ peptide variants were separated by isoelectric focusing in microcapillaries followed by photochemical immobilization to the inner capillary walls and probing with the primary antibodies for 120 min. After 2 washes, the horseradish peroxidase conjugated secondary antibodies were loaded and incubated for 60 min. After two washing steps, a luminol/peroxide mix was loaded, and chemiluminescent signals were recorded. The data was analyzed with the Compass for SW software. The following secondary antibodies were used: Anti-human IgG Secondary HRP antibody (Protein Simple, catalog number 043–491), Goat-Anti-Mouse-HRP Secondary Antibody ProteinSimple, catalog number 040–655) and Peroxidase-conjugated Affini Pure Donkey Anti-Human IgG (H+L) (1:100 dilution) (Jackson ImmunoResearch Laboratories Inc., West Grove, PA, code number 709–035-149).

[2] = test system: Aβ1–42 monomer, oligomer and fibril preparations; AβpE3–40; test: Bistris-SDS gradient PAGE/Western blot; assay type: binding; details: 4–12% Bistris SDS-PAGE/Western blot
Method: No SPR-487B) (StressMarq biosciences, Victoria, BC, Canada). The samples for electrophoresis were prepared (starting from stock solutions) with final concentrations of 0.1 μg/μL) in LDS sample buffer (247.5 mM Tris-HCl, pH 8.5, 2% (w/v) lithium dodecyl sulfate (LDS), 10% (v/v) glycerol, 0.5 mM EDTA, 0.22 mM Brilliant Blue G250, 0.175 mM Phenol Red) and denatured by heating at 70°C for 10 min. […] The prechilled transfer buffer contained 25 mM Tris, 192 mM glycine, 20% (v/v) methanol and 0.0375 % Tween-20. After blotting, the membrane was washed for 10 min at room temperature in Tris-buffered saline (TBS) followed by blocking for 30 min with 5% powdered milk in TBS containing 0.1% Tween-20 (TBS-T). The blots were then incubated with primary antibodies in 5% milk in TBS-T over night at 4°C and washed 3 × for 10 min with TBS-T at room temperature. […] After 1 h incubation with the secondary antibodies, the blots were washed 3 × for 10 min with TBS-T and incubated for 5 min with ECL-Prime Western Blotting Detection Reagent (Cytiva Amersham, Little Chalfont, England). Images were recorded on a Vilber-Loumart Fusion SL blot imager. […] That way, the 4G8 reprobing signals were essentially added on top of the initial signals and background artifacts.

[3] = test system: Aβ vascular and parenchymal deposits in AD brain sections; test: Immunohistochemistry on AD brain tissue with antibody pre-adsorption; set-up: species or system human
Method: Immunohistochemistry was performed on 4-μm paraffin sections. In brief, brain sections were deparaffinized in Roticlear (Carl Roth, Karlsruhe, Germany) and rehydrated in a descending series of ethanol. Activity of endogenous peroxidases was blocked by incubation in 0.3% H2O2 in PBS for 30 min. […] Antibodies and peptides were incubated on a rotator for 3 h at room temperature and reaction tubes were centrifuged at 13000 rpm for 5 min at the end of the incubation period. Control conditions included antibodies in 0.01 M PBS including 10% FCS without synthetic peptides. Adjacent paraffin-embedded sections from a human AD case were incubated overnight with the supernatants and sections were washed with 0.01 M PBS including 0.1 % Tergitol. For detection, biotinylated anti-human antibodies (6 μg/ml, Jackson ImmunoResearch, West Grove, Pennsylvania, USA #109-065-003) were used and staining was visualized with the ABC method with a Vectastain kit (Vector Laboratories, Newark, California, USA), diaminobenzidine as a chromogen and counterstaining with hematoxylin.

synthetic Aβ peptides = test: Peptide Bicine-Tris SDS-PAGE/Western blot; assay type: binding; details: PVDF, 50 ng per peptide, 0.5 μg/mL antibody
[4] = test system: synthetic Aβ peptide variants; test: Capillary isoelectric focusing (CIEF) immunoassay; assay type: binding; details: Peggy Sue, chemiluminescence
Method: as §1, §2

[5] = test system: amyloid precursor protein (APP770) residues 649–722; test: Peptide microarray epitope pre-screening (overlapping 15-mers); assay type: binding, human; details: Aβ residue numbers; 15-mer peptides overlapping by 14AAs on cellulose conjugates, 0.5–1 μg/mL antibody, chemiluminescence
Method: Information regarding binding epitopes and /or immunogens for most of the tested Aβ-Abs has been published and is summarized in Table 1. However, the binding epitope information was derived from varying methodologies. To provide an initial side-by-side comparison we pre-screened all of the listed Aβ-Abs in array format using copies of peptide libraries and standard antibody concentrations of 0.5–1 μg/mL (Figure 1a). The library comprised the amyloid precursor protein (APP770) residues 649–722, corresponding to the canonical Aβ1–42 amino acid sequence with additional 23 amino terminal and 9 carboxy terminal residues. […] For optimal signal to noise ratios and ideal selectivity profiles on the microarrays, the Aβ-Ab concentrations were adjusted for 3D6, 82E1, 11H3, 80C2 and 7H3D6 (Figure 1 – figure- supplement 1) and (Appendix 1–7). […] Specifically, Donanemabbs, 2–48 and Aβ-pE3 were raised against AβpE3-x (Table 1) and were expected to show preference for Aβ peptides starting with a pE(3).
Figure 1. Microarray workflow and Aβ-Ab epitope pre-screening. (a) Schematic of the microarray workflow. The library comprised the amyloid precursor protein (APP) residues 649–722 (APP770 numbering), corresponding to Aβ residues −23 to 51, as a library of 15-mer peptides overlapping by 14AAs, copied in dozens, and probed for Aβ-Abs binding followed by analysis in MARTin. (b) The epitope screening binding data are summarized as a heatmap. Blue and red shades indicate the relative binding strength of the related arrayed peptides to the left and cognate Aβ-Ab on top. The blue – red scale is visualizing the normalized binding intensity for each antibody individually. The applied antibody concentrations ranged between 0.5–1 μg/mL.
The μSPOT assay was performed as previously described. […] Peptide arrays were synthesized using MultiPep RSi robot (CEM GmbH, Kamp-Lintford, Germany) on cellulose discs containing Fmoc-β-Ala linkers. Natural amino acid building blocks were purchased from IRIS (IRIS Biotech GmbH, Marktredwitz, Germany). Special building blocks employed in this study such as isomers, stereoisomers, phosphorylation and pyroglutamination […] modifications are listed here: Fmoc-L-Ser(PO(OBzl)OH)-OH (Iris – FAA1423), L-Pyroglutamic acid pentachlorophenyl ester (Novabiochem - 8.54203), Fmoc-L-Asp-OtBu (Iris – FAA1356), Fmoc-D-Asp-OtBu (Carbosolutions – CC05095) and Fmoc-D-Asp(tBu)-OH (Iris – FAA1309). Synthesis was carried out by deprotecting the Fmoc-group using 20% piperidine in dimethylformamide (DMF). Peptide chains were elongated using a coupling solution consisting of amino acids (0.5M) with oxyma (1M) and DIC (1M) in DMF (1:1:1). Coupling steps were carried out 3 times (30min), followed by capping (4% acetic anhydride in DMF). Discs were transferred into 96 deep-well plates for the work-up.

[6] = test system: endogenous soluble Aβ in pooled human CSF; test: IP-MS from pooled human CSF; assay type: binding; details: 250 μL pooled human CSF, CHCA matrix; two replicate measurements each from two independent immunoprecipitations
[7] = test system: Alzheimer's disease patients; details: cited from earlier work
Aβ = details: cited from earlier work
[8] = Lecanemabbs #BXC-SIM0032, 0.06 μg with 0.25 μg peptide

Molecule: Aβ−3–40: N-terminally elongated Aβ, provided by H.-J. Knölker, Technische Universität Dresden
- pI [1]: 6.04

Molecule: Aβ1–42: synthetic Aβ peptide, AnaSpec; monomers, oligomers, fibrils from StressMarq
- pI [1]: approx. 5.3

Molecule: Aβ1–40: synthetic Aβ peptide, AnaSpec
- pI [1]: 5.31

B1: Lecanemabbs: humanized monoclonal, biosimilar of Lecanemab, Proteogenix (#PX-TA1746) and BioXCell (#BXC-SIM0032) (antibody, chains of the INN, looked up, V domains shown)
VH: EVQLVESGGGLVQPGGSLRLSCSASGFTFSSFGMHWVRQAPGKGLEWVAYISSGSSTIYYGDTVKGRFTISRDNAKNSLFLQMSSLRAEDTAVYYCAREGGYYYGRSYYTMDYWGQGTTVTVSS
VL: DVVMTQSPLSLPVTPGAPASISCRSSQSIVHSNGNTYLEWYLQKPGQSPKLLIYKVSNRFSGVPDRFSGSGSGTDFTLRISRVEAEDVGIYYCFQGSHVPPTFGPGTKLEIK
modifications: biosimilar
- preference for Aβ1–42 aggregation state [2]: a certain, but not absolute preference for aggregated forms of Aβ1–42 over monomeric and low-n oligomeric forms
- IHC immunoreactivity after pre-adsorption with Aβ1–42 fibrils ([3]; Aducanumabbs 0.5 μg with 5 μg fibrils, Lecanemabbs (PX-TA1746) 0.06 μg with 0.25 μg, human AD brain, antibody for IHC: Aducanumabbs 0.5 μg/μl (so in the source)): efficiently blocked
- IHC immunoreactivity after pre-adsorption with Aβ1–42 monomers ([3]; Aducanumabbs 0.5 μg with 10 μg monomers, Lecanemabbs (PX-TA1746) 0.06 μg with 0.25 μg, human AD brain): efficiently blocked
- IHC blocking by Aβ1–16 (BioXCell lot) [3, 8]: did not
- IHC blocking by Aβ1–34 (BioXCell lot) [3, 8]: did not
- IHC blocking by Aβ1–38 (BioXCell lot) [3, 8]: did not
- IHC blocking by Aβ1–42 monomers (BioXCell lot) [3, 8]: completely blocked Lecanemabbs binding
- IHC immunoreactivity after pre-adsorption with Aβ1–42 oligomers ([3]; Lecanemabbs (PX-TA1746) 0.06 μg with 0.25 μg oligomers, human AD brain): efficiently blocked
- Aβ variants detected on Bicine-Tris SDS-PAGE/Western blot (synthetic Aβ peptides): recognized Aβ1–40, Aβ1–42, Aβ3–40 (pI approximately 5.97) Aβ-3–40 (aka. APP669–711),phosphorylated pSer8-Aβ1–40
- Aβ variants detected on CIEF-immunoassay [4]: recognized Aβ1–40, Aβ1–42, Aβ3–40 (pI approximately 5.97) Aβ-3–40 (aka. APP669–711),phosphorylated pSer8-Aβ1–40; also recorded: detected Aβ1–40 (pI 5.31), Aβ2–40 (pI 5.98), Aβ3–40 (pI 5.97), Aβ−3–40 (pI 6.04), Aβ1–42 (pI approx. 5.3) and pSer8Aβ1–40 (amide) (pI 5.13–5.14)
- Array: epitope identified in this study on microarrays [5]: 3–7
- immunoprecipitation of endogenous Aβ from CSF [6]: immunoprecipitated authentic biological Aβ peptides from pooled human CSF; also recorded: Aβ1–40, Aβ1–38, Aβ42, Aβ1–37 and Aβ1–39 were detected, albeit with relatively low signal intensities

B2: Lecanemab: designed at Uppsala University, humanized by BioArctic, later licensed to Eisai (antibody, chains of the INN, looked up, V domains shown)
VH: EVQLVESGGGLVQPGGSLRLSCSASGFTFSSFGMHWVRQAPGKGLEWVAYISSGSSTIYYGDTVKGRFTISRDNAKNSLFLQMSSLRAEDTAVYYCAREGGYYYGRSYYTMDYWGQGTTVTVSS
VL: DVVMTQSPLSLPVTPGAPASISCRSSQSIVHSNGNTYLEWYLQKPGQSPKLLIYKVSNRFSGVPDRFSGSGSGTDFTLRISRVEAEDVGIYYCFQGSHVPPTFGPGTKLEIK
- ARIA-E frequency ([7]; cross-study comparison, ref [38]): 13%
- clinical outcome, Clarity AD ([7]; ref [45],[46]): positive results in the Clarity AD trial
- binding to aggregated versus monomeric Aβ (Aβ; ref [38],[40],[41],[83]): strong preference for Aβ protofibrils and to bind Aβ monomers only weakly; also recorded: preferably bind specific aggregated forms of Aβ over monomeric forms
- preferential binding to fibrillar Aβ (Aβ; ref [46]): preferential binding to fibrillar Aβ aggregates
- Array: epitope identified in this study on microarrays [5]: 3–7
